Here are results for three molecules from patent US20190134214A1, “GLP-1 Receptor Ligand Moiety Conjugated Oligonucleotides and Uses Thereof” (published 2019).

Square brackets hold non-standard residues; d marks the D form. Ends that are not written are not given here. Aib = CC(C)(N)C(=O)O

Experiment [1] addresses GLP-1 receptor of mouse primary islets of Langerhans (mouse, UniProt O35659). The experiment in a line: cell-based or functional assay.
The target in experiment [2] is FLAG-tagged GLP1R, stably expressed in HEK 293 cells (LVX-GLP1R cells).
The target in experiment [3] is human GLP-1 receptor (hGLP1R), stably expressed in HEK293 cells (hGLP1R-HEK) (human, UniProt P43220). The experiment in a line: cell-based or functional assay.
Experiment [4] concerns the target FLAG-tagged GLP1R, stably expressed in HEK 293 cells (LVX-GLP1R cells). This is another data set of the same source.

B1: GLP-1 peptide conjugated ASO targeted to FOXO1 (ION 913193) (peptide)
peptide: H[Aib]EGTFTSDVSSYLEEQAAKEFIAWLVKGGPSSGAPPPSC-NH2
modifications: not fully specified (residue 40); also: Cys40 disulfide via 3-mercaptopropionate linker to 5'-hexylamino ASO ION 913192
For B1, the “Islet FOXO1 mRNA levels relative to control (RPLP0), percent of untreated, 96 hours, 1 µM” value in experiment [1] was 25%.

B2: 5'-GLP-1 peptide conjugated ASO targeted to MALAT1 (ION 962963) (peptide)
peptide: H[Aib]EGTFTSDVSSYLEEQAAKEFIAWLVKGGPSSGAPPPSC-NH2
modifications: not fully specified (residue 40); also: Cys40 disulfide to 3-mercaptopropionate linker
Take B2: the IC50 of MALAT-1 expression in GLP1R HEK cells in experiment [2] came out at 350 nM.

B3: GLP-1 conjugated MALAT1 ASO (ISIS 816385) (peptide)
peptide: H[Aib]EGTFTSDVSSYLEEQAAKEFIAWLVKGGPSSGAPPPSC-NH2
modifications: not fully specified (residue 40); also: Cys40 disulfide via 3-mercaptopropionate linker to 5'-hexylamino ASO ISIS 786434
Molecule B3 yielded an IC50 of MALAT-1 expression in GLP1R HEK cells in experiment [2] of 260 nM. The “IC50 of inhibition of MALAT1 mRNA in hGLP1R-HEK cells” value in experiment [3] turned out to be 20 nM. In experiment [4], this molecule displayed an IC50 of peptide-conjugated ASO activity (MALAT1 RNA) in LVX-GLP1R cells of 350 nM.
